# Data as given in PMC2756588.
# Values joined by “and” are separate entries in the source; they are usually repeats but may differ in a detail not shown here. Equal values may be shown once.
# T1: Boi1, P38041
# T1 sequence (P38041 1-86, looked up): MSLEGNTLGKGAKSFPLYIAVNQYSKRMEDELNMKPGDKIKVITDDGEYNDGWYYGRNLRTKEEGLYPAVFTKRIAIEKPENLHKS
# T2: Bzz1-2, P38822
# T2 sequence (P38822 568-633, looked up): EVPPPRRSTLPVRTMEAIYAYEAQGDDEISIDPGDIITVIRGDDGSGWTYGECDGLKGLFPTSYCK
# T3: Boi2, P39969
# T3 sequence (P39969 32-116, looked up): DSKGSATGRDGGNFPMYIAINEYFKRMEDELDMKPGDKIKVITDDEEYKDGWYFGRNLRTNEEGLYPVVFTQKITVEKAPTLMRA
# T4: Sla1-2, P32790
# T4 sequence (P32790 60-140, looked up): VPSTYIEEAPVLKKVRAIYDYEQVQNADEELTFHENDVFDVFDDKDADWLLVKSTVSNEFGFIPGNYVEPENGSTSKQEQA
# T5: Lsb3, P43603
# T5 sequence (P43603 385-451, looked up): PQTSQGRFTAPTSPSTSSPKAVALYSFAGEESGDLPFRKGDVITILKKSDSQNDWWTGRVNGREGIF
# T6: Abp1, P15891
# T6 sequence (P15891 535-592, looked up): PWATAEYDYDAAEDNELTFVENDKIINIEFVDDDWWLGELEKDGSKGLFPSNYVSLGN
# T7: Sla1-3, P32790
# T7 sequence (P32790 344-424, looked up): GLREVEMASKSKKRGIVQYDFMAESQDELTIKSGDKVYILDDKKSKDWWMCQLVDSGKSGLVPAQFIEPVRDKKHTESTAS
# T8: Lsb1, P53281
# T8 sequence (P53281 45-122, looked up): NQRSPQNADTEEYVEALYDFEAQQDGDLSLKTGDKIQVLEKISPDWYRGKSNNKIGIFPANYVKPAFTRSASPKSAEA
# T9: Myo5, Q04439
# T9 sequence (Q04439 1072-1160, looked up): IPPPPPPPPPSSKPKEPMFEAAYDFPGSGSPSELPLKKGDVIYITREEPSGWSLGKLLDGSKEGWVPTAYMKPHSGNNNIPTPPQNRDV
# T10: Cyk3, Q07533
# T10 sequence (Q07533 1-83, looked up): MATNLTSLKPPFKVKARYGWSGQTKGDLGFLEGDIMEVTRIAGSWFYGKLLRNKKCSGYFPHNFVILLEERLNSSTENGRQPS
# T11: Bbc1, P47068
# T11 sequence (P47068 1-78, looked up): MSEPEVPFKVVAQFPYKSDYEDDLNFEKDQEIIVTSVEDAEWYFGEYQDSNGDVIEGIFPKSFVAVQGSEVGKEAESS
# T12: Cdc25, P04821
# T12 sequence (P04821 50-136, looked up): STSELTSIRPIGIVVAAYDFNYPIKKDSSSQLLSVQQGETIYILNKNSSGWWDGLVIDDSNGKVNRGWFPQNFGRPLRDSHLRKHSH
# T13: Nbp2, Q12163
# T13 sequence (Q12163 103-180, looked up): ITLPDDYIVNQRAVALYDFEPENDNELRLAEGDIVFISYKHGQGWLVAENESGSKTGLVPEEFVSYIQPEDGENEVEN
# T14: Hse1, P38753
# T14 sequence (P38753 208-285, looked up): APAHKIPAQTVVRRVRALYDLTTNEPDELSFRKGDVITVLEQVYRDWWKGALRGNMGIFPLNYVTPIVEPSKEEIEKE
# T15: Hof1, Q05080
# T15 sequence (Q05080 590-669, looked up): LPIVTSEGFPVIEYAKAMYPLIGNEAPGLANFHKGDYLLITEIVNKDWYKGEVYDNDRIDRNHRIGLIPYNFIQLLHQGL
# T16: Fus1, P11710
# T16 sequence (P11710 432-512, looked up): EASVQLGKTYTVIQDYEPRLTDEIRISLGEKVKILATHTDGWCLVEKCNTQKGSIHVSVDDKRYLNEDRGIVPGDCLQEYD
# T17: Bzz1-1, P38822
# T17 sequence (P38822 478-572, looked up): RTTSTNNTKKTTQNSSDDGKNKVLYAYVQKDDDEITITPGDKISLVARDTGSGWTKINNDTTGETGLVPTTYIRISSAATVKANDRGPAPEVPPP
# T18: Pex13, P80667
# T18 sequence (P80667 295-386, looked up): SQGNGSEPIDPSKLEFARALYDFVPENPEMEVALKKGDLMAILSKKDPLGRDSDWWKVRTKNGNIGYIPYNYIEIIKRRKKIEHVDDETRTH
# T19: Lsb4, P32793
# T19 sequence (P32793 402-468, looked up): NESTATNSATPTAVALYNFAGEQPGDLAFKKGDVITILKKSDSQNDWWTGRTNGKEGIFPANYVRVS
# T20: Pin3, Q06449
# T20 sequence (Q06449 53-122, looked up): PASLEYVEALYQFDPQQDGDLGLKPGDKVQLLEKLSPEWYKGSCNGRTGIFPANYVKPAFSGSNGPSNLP
# T21: Bud14, P27637
# T21 sequence (P27637 247-328, looked up): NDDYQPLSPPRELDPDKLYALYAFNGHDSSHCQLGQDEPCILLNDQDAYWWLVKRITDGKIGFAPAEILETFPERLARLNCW
# Molecular target: Sho1, P40073
# Sequence (P40073 287-367): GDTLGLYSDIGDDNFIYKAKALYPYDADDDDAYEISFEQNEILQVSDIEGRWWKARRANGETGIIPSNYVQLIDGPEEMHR
# Test: SPOT array
# Conditions: median of control spots 1148
row,SPOT intensity,Binder
1,0,GPPPPLPPPLFPSSS
2,24,LKPPIGRPPKFPKSP
3,267 and 126,VSKLRSPNTPRRLRK
4,21,PLQSKIPMLPSRRTM

# Molecular target: T1, Boi1, P38041
# Test: SPOT array
# Conditions: median of control spots 1162
row,SPOT intensity,Binder
1,0,GPPPPLPPPLFPSSS
2,3,LKPPIGRPPKFPKSP
3,8 and 4,VSKLRSPNTPRRLRK
4,0,PLQSKIPMLPSRRTM

# Molecular target: T2, Bzz1-2, P38822
# Test: SPOT array
# Conditions: median of control spots 4538
row,SPOT intensity,Binder
1,0,GPPPPLPPPLFPSSS
2,0,LKPPIGRPPKFPKSP
3,0,PLQSKIPMLPSRRTM

# Molecular target: T3, Boi2, P39969
# Test: SPOT array
# Conditions: median of control spots 1161
row,SPOT intensity,Binder
1,0,GPPPPLPPPLFPSSS
2,0,LKPPIGRPPKFPKSP
3,0,PLQSKIPMLPSRRTM

# Molecular target: T4, Sla1-2, P32790
# Test: SPOT array
# Conditions: median of control spots 712
row,SPOT intensity,Binder
1,0,GPPPPLPPPLFPSSS
2,0,LKPPIGRPPKFPKSP
3,0,VSKLRSPNTPRRLRK
4,14,PLQSKIPMLPSRRTM

# Molecular target: T5, Lsb3, P43603
# Test: SPOT array
# Conditions: median of control spots 406
row,SPOT intensity,Binder
1,0,GPPPPLPPPLFPSSS
2,3,LKPPIGRPPKFPKSP
3,72 and 49,VSKLRSPNTPRRLRK
4,635,PLQSKIPMLPSRRTM

# Molecular target: T6, Abp1, P15891
# Test: SPOT array
# Conditions: median of control spots 935
row,SPOT intensity,Binder
1,6,GPPPPLPPPLFPSSS
2,133,LKPPIGRPPKFPKSP
3,216 and 273,VSKLRSPNTPRRLRK
4,124,PLQSKIPMLPSRRTM

# Molecular target: Bem1-1, P29366
# Sequence (P29366 55-141): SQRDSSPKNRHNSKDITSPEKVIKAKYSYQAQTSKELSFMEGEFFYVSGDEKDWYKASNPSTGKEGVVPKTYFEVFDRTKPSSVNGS
# Test: SPOT array
# Conditions: median of control spots 4282
row,SPOT intensity,Binder
1,0,GPPPPLPPPLFPSSS
2,0,LKPPIGRPPKFPKSP
3,1 and 3,VSKLRSPNTPRRLRK
4,1,PLQSKIPMLPSRRTM

# Molecular target: T7, Sla1-3, P32790
# Test: SPOT array
# Conditions: median of control spots 5475
row,SPOT intensity,Binder
1,0,GPPPPLPPPLFPSSS
2,0,LKPPIGRPPKFPKSP
3,9 and 7,VSKLRSPNTPRRLRK
4,0,PLQSKIPMLPSRRTM

# Molecular target: T8, Lsb1, P53281
# Test: SPOT array
# Conditions: median of control spots 388
row,SPOT intensity,Binder
1,64,GPPPPLPPPLFPSSS
2,0,LKPPIGRPPKFPKSP
3,396,PLQSKIPMLPSRRTM

# Molecular target: T9, Myo5, Q04439
# Test: SPOT array
# Conditions: median of control spots 471
row,SPOT intensity,Binder
1,362,GPPPPLPPPLFPSSS
2,117,LKPPIGRPPKFPKSP
3,35,PLQSKIPMLPSRRTM

# Molecular target: GST
# Test: SPOT array
# Conditions: median of control spots 978
row,SPOT intensity,Binder
1,0,GPPPPLPPPLFPSSS
2,0,LKPPIGRPPKFPKSP
3,3 and 1,VSKLRSPNTPRRLRK
4,0,PLQSKIPMLPSRRTM

# Molecular target: T10, Cyk3, Q07533
# Test: SPOT array
# Conditions: median of control spots 1451
row,SPOT intensity,Binder
1,0,GPPPPLPPPLFPSSS
2,0,LKPPIGRPPKFPKSP
3,2 and 1,VSKLRSPNTPRRLRK
4,2,PLQSKIPMLPSRRTM

# Molecular target: T11, Bbc1, P47068
# Test: SPOT array
# Conditions: median of control spots 796
row,SPOT intensity,Binder
1,0,GPPPPLPPPLFPSSS
2,18,LKPPIGRPPKFPKSP
3,223 and 226,VSKLRSPNTPRRLRK
4,29,PLQSKIPMLPSRRTM

# Molecular target: T12, Cdc25, P04821
# Test: SPOT array
# Conditions: median of control spots 969
row,SPOT intensity,Binder
1,0,GPPPPLPPPLFPSSS
2,0,LKPPIGRPPKFPKSP
3,55 and 39,VSKLRSPNTPRRLRK
4,0,PLQSKIPMLPSRRTM

# Molecular target: T13, Nbp2, Q12163
# Test: SPOT array
# Conditions: median of control spots 357
row,SPOT intensity,Binder
1,0,GPPPPLPPPLFPSSS
2,0,LKPPIGRPPKFPKSP
3,0,VSKLRSPNTPRRLRK
4,12,PLQSKIPMLPSRRTM

# Molecular target: T14, Hse1, P38753
# Test: SPOT array
# Conditions: median of control spots 1727
row,SPOT intensity,Binder
1,0,GPPPPLPPPLFPSSS
2,1,LKPPIGRPPKFPKSP
3,3,PLQSKIPMLPSRRTM

# Molecular target: T15, Hof1, Q05080
# Test: SPOT array
# Conditions: median of control spots 4086
row,SPOT intensity,Binder
1,1690,GPPPPLPPPLFPSSS
2,0,LKPPIGRPPKFPKSP
3,186,PLQSKIPMLPSRRTM

# Molecular target: T16, Fus1, P11710
# Test: SPOT array
# Conditions: median of control spots 1200
row,SPOT intensity,Binder
1,0,GPPPPLPPPLFPSSS
2,0,LKPPIGRPPKFPKSP
3,0,PLQSKIPMLPSRRTM

# Molecular target: Rvs167, P39743
# Sequence (P39743 419-482): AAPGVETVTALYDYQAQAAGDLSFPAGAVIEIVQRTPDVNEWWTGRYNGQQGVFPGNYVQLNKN
# Test: SPOT array
# Conditions: median of control spots 2707
row,SPOT intensity,Binder
1,0,GPPPPLPPPLFPSSS
2,0,LKPPIGRPPKFPKSP
3,1570,PLQSKIPMLPSRRTM

# Molecular target: T17, Bzz1-1, P38822
# Test: SPOT array
# Conditions: median of control spots 4446
row,SPOT intensity,Binder
1,0,GPPPPLPPPLFPSSS
2,0,LKPPIGRPPKFPKSP
3,0,VSKLRSPNTPRRLRK
4,0,PLQSKIPMLPSRRTM

# Molecular target: T18, Pex13, P80667
# Test: SPOT array
# Conditions: median of control spots 1341
row,SPOT intensity,Binder
1,725,GPPPPLPPPLFPSSS
2,4,LKPPIGRPPKFPKSP
3,3 and 1,VSKLRSPNTPRRLRK
4,329,PLQSKIPMLPSRRTM

# Molecular target: T19, Lsb4, P32793
# Test: SPOT array
# Conditions: median of control spots 397
row,SPOT intensity,Binder
1,10,GPPPPLPPPLFPSSS
2,0,LKPPIGRPPKFPKSP
3,206 and 92,VSKLRSPNTPRRLRK
4,960,PLQSKIPMLPSRRTM

# Molecular target: T20, Pin3, Q06449
# Test: SPOT array
# Conditions: median of control spots 2171
row,SPOT intensity,Binder
1,0,GPPPPLPPPLFPSSS
2,0,LKPPIGRPPKFPKSP
3,5 and 3,VSKLRSPNTPRRLRK
4,280,PLQSKIPMLPSRRTM

# Molecular target: Myo3, P36006
# Test: SPOT array
# Conditions: median of control spots 468
row,SPOT intensity,Binder
1,575,GPPPPLPPPLFPSSS
2,397,LKPPIGRPPKFPKSP
3,8 and 6,VSKLRSPNTPRRLRK
4,102,PLQSKIPMLPSRRTM

# Molecular target: Bem1-2, P29366
# Sequence (P29366 139-227): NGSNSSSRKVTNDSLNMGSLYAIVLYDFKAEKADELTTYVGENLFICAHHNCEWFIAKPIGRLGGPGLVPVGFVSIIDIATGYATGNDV
# Test: SPOT array
# Conditions: median of control spots 4347
row,SPOT intensity,Binder
1,0,GPPPPLPPPLFPSSS
2,0,LKPPIGRPPKFPKSP
3,0,PLQSKIPMLPSRRTM

# Molecular target: T21, Bud14, P27637
# Test: SPOT array
# Conditions: median of control spots 956
row,SPOT intensity,Binder
1,0,GPPPPLPPPLFPSSS
2,0,LKPPIGRPPKFPKSP
3,6,VSKLRSPNTPRRLRK
4,0,PLQSKIPMLPSRRTM
